Test results: PMC4466232

Columns and labels:
[1] = target: MVM capsid protein VP2 (stably expressed in human fibroblasts, HF-VPs) (Minute Virus of Mice, prototype strain (MVMp)); test: cross-linking; clarified cell homogenates in HNEM buffer (50 mM Hepes pH 8.0, 150 mM NaCl, 2 mM MgCl2, 1 mM EDTA) cross-linked with 10 mM dimethyl suberimidate (DMS), 10 min at 20°C; 5% SDS-PAGE and Western blot with the α-VPs antibody; MF-VPs quiescent by serum starvation (G0) or 8 h after serum addition (S); HF-VPs at hours after release of density arrest (G1)
[2] = target: MVM capsid protein VP2 (stably expressed in mouse fibroblasts, MF-VPs) (Minute Virus of Mice, prototype strain (MVMp)); test: as above

## MVM capsid protein VP2 (stably expressed in human fibroblasts, HF-VPs) (natural protein)
[1]
  stoichiometry N: 3

## MVM capsid protein VP2 (stably expressed in mouse fibroblasts, MF-VPs) (natural protein)
[2]
  stoichiometry N: 3
